Data on 1 substance can be found in patent US20140304847A1.

This experiment concerns the target Ku70 (endogenous full length protein of the human HEK 293 reporter cells) (UniProt P12956). Nature of the experiment: cell-based or functional assay.

As to “truncated Ku80 protein, residues 427-732 of mouse Ku80, expressed from pCAG-Ku80(427-732)-bpA (from UniProt P27641 427-732)”, the fold increase of homologous recombination in 293Rab-Rep#4 reporter cells against transfection without the Ku80 fragment turned out to be 2 fold.
